US20140245492

Target: ubiquitin

B1: MBP-AtAIRP2 (fusion of maltose-binding protein and Arabidopsis thaliana ABA Insensitive Ring Protein 2) (protein)
chain: MRKSFKDSLKALEADIQFANTLASEYPEEYDGGYVQMRLSYSPAAHLFLFLLQWTDCHFAGALGLLRILIYKAYVDGKTTMSLHERKTSIREFYDVLFPSLLQLHGGITDVEERKQKEICDKRYRKKDRTDKGKMSEIDLEREEECGICLEIRNKVVLPTCNHSMCINCYRNWRARSQSCPFCRGSLKRVNSGDLWIYTCSAEIADLPAIYKENLKRLLIYIDKLPLVTSDPNLVPYAPLPR
- Self-Ubiquitination (in vitro, with UBA1, UBC8 and ubiquitin, 30° C. for 1 hour; Western blot using MBP- and ubiquitin-specific antibodies): the molecular weight of the AtAIRP2 protein was increased through Western blot using anti-MBP antibody, and the increase was induced due to ubiquitin
